In article PMC4853233:

Assay: anti-FLAG western blot, 293T cells
Conditions: glycan lost; control: WT-TWSG1 adenovirus

B1: twisted gastrulation (TWSG1): N80Q/N146Q (protein)
parent chain: MKSHYIVLALASLTFLLCLPVSQSCNKALCASDVSKCLIQELCQCRPGEGNCPCCKECMLCLGALWDECCDCVGMCNPRNYSDTPPTSKSTVEELHEPIPSLFRALTEGDTQLNWNIVSFPVAEELSHHENLVSFLETVNQLHHQNVSVPSNNVHAPFPSDKERMCTVVYFDDCMSIHQCKISCESMGASKYRWFHNACCECIGPECIDYGSKTVKCMNCMF
expression_or_secretion: no change
